A short description of this data set: self-splicing fitness, log relative to wild type (ln ratio); higher = more splicing; Tetrahymena group I intron in knt gene, E. coli kanamycin selection, DiMSum; sequences stand for … in CUCUCU…GGAGGGAAAAGUUAUCAGGCAUGCACCUGGUAGCUAGUCUUUAAACCAAUAGAUUGCAUCGGUUUAAAAGGCAAGACCGUCAAAUUGCGGGAAAGGGGUCAACAGCCGUUCAGUACCAAGUCUCAGGGGAAACUUUGAGAUGGCCUUGCAAAGGGUAUGGUAAUAAGCUGACGGACAUGGUCCUAACCACGCAGCCAAGUCCUAAGUCAACAGAUCUUCUGUUGAUAUGGAUGCAGUUCACAGACUAAAUGUCGGUCGGGGAAGAUGUAUUCUUCUCAUAAGAUAUAGUCGGACCUCUCCUUAAUGGGAGCUAGCGGAUGAAGUGAUGCAACACUGGAGCCGCUGGGAACUAAUUUGUAUGCGAAAGUAUAUUGAUUAGUUUUGGAGUACUCGUGGUCG
In short, it runs like this:
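Colonies from six replicate transformations of E. coli BL21(DE3) were pooled and amplicon-sequenced on an Illumina HiSeq 2500. The library placed an intron with all eight P1ex-region nucleotides randomised inside the knt kanamycin-resistance gene on pET-22b(+), and cells grew overnight at 37°C or 30°C on LB agar with or without 25 μg/mL kanamycin (plus 100 μg/mL carbenicillin, 50 μM IPTG, 0.2% rhamnose). Fitness is the DiMSum error-weighted combination of wild-type-normalised replicate fold changes, kanamycin versus none.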

± gives the uncertainty stated by the source.

On to CGUUAGCAAUAUUACGGGAA, for which the “self-splicing fitness (ln)” value reads like this: (30 °C) -2.14 ± 0.17; (37 °C) -2.36 ± 0.28. The matching figures for CUCGAGCAAUAUUACGGAAG: -3.56 ± 0.2 and -1.32 ± 0.13. Taken in the same sequence, the figures for CAAGAGCAAUAUUACGGUAG were -1.18 ± 0.076 and -1.01 ± 0.12. The matching figures for UGGGAGCAAUAUUACGAACU: -0.981 ± 0.1 and -1.42 ± 0.19. As for AGUGAGCAAUAUUACGAUCA, the “self-splicing fitness (ln)” value reads like this: (30 °C) -1.64 ± 0.13; (37 °C) -0.675 ± 0.16. Consider GCCCAGCAAUAUUACGCCAU, for which the “self-splicing fitness (ln)” value (30 °C) was -2.56 ± 0.22 and the “self-splicing fitness (ln)” value (37 °C) was -3.35 ± 0.37. The matching figures for AUAUAGCAAUAUUACGACUU: 0.217 ± 0.073 and -0.272 ± 0.075.

On to CGGCAGCAAUAUUACGGAUG, for which the “self-splicing fitness (ln)” value is, setting by setting: (30 °C) -0.873 ± 0.075; (37 °C) 0.507 ± 0.11. The matching figures for UAUAAGCAAUAUUACGAAGA: -2.72 ± 0.24 and -1.66 ± 0.16. As to UUAGAGCAAUAUUACGGGCA, the “self-splicing fitness (ln)” value (30 °C) was -2.25 ± 0.12 and the “self-splicing fitness (ln)” value (37 °C) was -1.54 ± 0.18. Taken in the same sequence, the figures for CCCAAGCAAUAUUACGUGGA were -0.971 ± 0.052 and -0.376 ± 0.061. For CAUAAGCAAUAUUACGACGC, the “self-splicing fitness (ln)” value by setting is: (30 °C) -2.7 ± 0.25; (37 °C) -0.823 ± 0.19. Consider CCAGAGCAAUAUUACGACUC, for which the “self-splicing fitness (ln)” value is -1.93 ± 0.32 (30 °C) and -1.12 ± 0.43 (37 °C). Taken in the same sequence, the figures for UCUCAGCAAUAUUACGUCUU were -3.25 ± 0.17 and -2.83 ± 0.15.

As for CGCAAGCAAUAUUACGGUUG, the “self-splicing fitness (ln)” value by setting is: (30 °C) -2.25 ± 0.098; (37 °C) -1.18 ± 0.096.

As to UGGCAGCAAUAUUACGCUUA, the “self-splicing fitness (ln)” value reads like this: (30 °C) -0.68 ± 0.088; (37 °C) 0.67 ± 0.1. Take AUGUAGCAAUAUUACGGCCC: the “self-splicing fitness (ln)” value was -0.72 ± 0.34 (30 °C) and -0.359 ± 0.25 (37 °C).

Consider UAGAAGCAAUAUUACGAAUC, for which the “self-splicing fitness (ln)” value (30 °C) was -3.48 ± 0.4 and the “self-splicing fitness (ln)” value (37 °C) is -2.65 ± 0.36. Taken in the same sequence, the figures for UCUUAGCAAUAUUACGUGCU were -3.12 ± 0.38 and -2.37 ± 0.48.

With UCCGAGCAAUAUUACGCCGC, under “37 °C”, the “self-splicing fitness (ln)” value was -2.15 ± 0.49. In the case of GAGCAGCAAUAUUACGAUUG, the “self-splicing fitness (ln)” value (30 °C) was -2.17 ± 0.083 and the “self-splicing fitness (ln)” value (37 °C) is -2.41 ± 0.17.

Take ACCAAGCAAUAUUACGGUUA: the “self-splicing fitness (ln)” value by setting is: (30 °C) -1.63 ± 0.1; (37 °C) -1.68 ± 0.096. Taken in the same sequence, the figures for UUGUAGCAAUAUUACGCUUA were -1.77 ± 0.25 and -1 ± 0.2. Taken in the same sequence, the figures for UGUUAGCAAUAUUACGCGAU were -3.44 ± 0.47 and -1.9 ± 0.4. The matching figures for UGUAAGCAAUAUUACGUGAA: -1.8 ± 0.16 and 0.0061 ± 0.14. For the sequence UUGUAGCAAUAUUACGGCGA, the “self-splicing fitness (ln)” value was 0.174 ± 0.1 (30 °C) and 0.227 ± 0.14 (37 °C). Taken in the same sequence, the figures for GAUUAGCAAUAUUACGGCGC were 0.24 ± 0.072 and 0.233 ± 0.084. The matching figures for CUUCAGCAAUAUUACGGUGG: -2.39 ± 0.12 and -1.18 ± 0.15. The matching figures for GACCAGCAAUAUUACGUUGA: -0.701 ± 0.053 and -0.203 ± 0.066.

Regarding UCUGAGCAAUAUUACGCAAG, the “self-splicing fitness (ln)” value was -3.36 ± 0.18 (30 °C) and -2.16 ± 0.19 (37 °C).

With CGACAGCAAUAUUACGUCCU, the “self-splicing fitness (ln)” value runs as follows: (30 °C) -0.518 ± 0.072; (37 °C) -0.311 ± 0.078. Taken in the same sequence, the figures for ACGCAGCAAUAUUACGGUCG were -0.525 ± 0.055 and -0.355 ± 0.072. Taken in the same sequence, the figures for GCUUAGCAAUAUUACGGGUA were -1.43 ± 0.15 and -0.513 ± 0.12. The matching figures for CGGCAGCAAUAUUACGCUCC: -4.03 ± 0.39 and -1.08 ± 0.25. On to GUUAAGCAAUAUUACGGGCC, for which the “self-splicing fitness (ln)” value (37 °C) was -2.12 ± 0.37. On to CGCCAGCAAUAUUACGCGCC, for which the “self-splicing fitness (ln)” value is, setting by setting: (30 °C) -1.82 ± 0.27; (37 °C) -1.15 ± 0.27. Taken in the same sequence, the figures for AUUUAGCAAUAUUACGUCCU were -0.237 ± 0.16 and 0.18 ± 0.23. For CCUUAGCAAUAUUACGGUUU, the “self-splicing fitness (ln)” value was -4.06 ± 0.16 (30 °C) and -2.42 ± 0.14 (37 °C). Taken in the same sequence, the figures for AAUCAGCAAUAUUACGGAAU were -0.646 ± 0.065 and -0.35 ± 0.075. As for GCGUAGCAAUAUUACGUCCC, the “self-splicing fitness (ln)” value (30 °C) is -0.245 ± 0.24. GCCGAGCAAUAUUACGGUCA: the “self-splicing fitness (ln)” value is, setting by setting: (30 °C) -1.63 ± 0.098; (37 °C) -0.977 ± 0.09. On to CCCCAGCAAUAUUACGACCC, for which the “self-splicing fitness (ln)” value (30 °C) was -0.862 ± 0.32. As for AUUUAGCAAUAUUACGUGAU, the “self-splicing fitness (ln)” value is, setting by setting: (30 °C) -0.978 ± 0.12; (37 °C) -0.863 ± 0.12. As to GAUUAGCAAUAUUACGCAGC, the “self-splicing fitness (ln)” value (30 °C) was -2.35 ± 0.31.

In the case of GCGAAGCAAUAUUACGAAUU, the “self-splicing fitness (ln)” value reads like this: (30 °C) -2.58 ± 0.16; (37 °C) -2.38 ± 0.3. With ACUGAGCAAUAUUACGCUGC, the “self-splicing fitness (ln)” value (37 °C) is -1.98 ± 0.33. With GGGGAGCAAUAUUACGGCAA, the “self-splicing fitness (ln)” value is -2.04 ± 0.33 (30 °C) and -0.565 ± 0.25 (37 °C).

Consider UUAUAGCAAUAUUACGACGC, for which, for the setting “30 °C”, the “self-splicing fitness (ln)” value is -2.63 ± 0.45. With UCGAAGCAAUAUUACGUGGC, the “self-splicing fitness (ln)” value (37 °C) is -2.78 ± 0.23. Take CGGAAGCAAUAUUACGAAAU: the “self-splicing fitness (ln)” value by setting is: (30 °C) -3.59 ± 0.45; (37 °C) -2.96 ± 0.31.

For AUCCAGCAAUAUUACGGUUG, the “self-splicing fitness (ln)” value (30 °C) is -2.95 ± 0.1 and the “self-splicing fitness (ln)” value (37 °C) was -1.03 ± 0.087. For GAACAGCAAUAUUACGGUGG, the “self-splicing fitness (ln)” value by setting is: (30 °C) -2 ± 0.095; (37 °C) -1.19 ± 0.1. Taken in the same sequence, the figures for GACGAGCAAUAUUACGGGGA were -3.12 ± 0.22 and -2.37 ± 0.29. The matching figures for ACGCAGCAAUAUUACGCAUU: -3.81 ± 0.19 and -1.89 ± 0.12. Taken in the same sequence, the figures for AUCCAGCAAUAUUACGAUGU were -0.743 ± 0.066 and 0.613 ± 0.093.

In the case of CACGAGCAAUAUUACGUAAU, the “self-splicing fitness (ln)” value is -3.8 ± 0.39 (30 °C) and -2 ± 0.27 (37 °C). The matching figures for UUCGAGCAAUAUUACGACGG: -1.24 ± 0.11 and -0.685 ± 0.1.

As to GAGCAGCAAUAUUACGCAUA, the “self-splicing fitness (ln)” value is, setting by setting: (30 °C) -1.11 ± 0.099; (37 °C) -0.606 ± 0.14. Consider AUAAAGCAAUAUUACGUUAC, for which the “self-splicing fitness (ln)” value is, setting by setting: (30 °C) -2.55 ± 0.13; (37 °C) -0.574 ± 0.12. For the sequence CCCAAGCAAUAUUACGUCCC, the “self-splicing fitness (ln)” value (30 °C) is -3.35 ± 0.43.

Regarding GAUCAGCAAUAUUACGAGCC, the “self-splicing fitness (ln)” value reads like this: (30 °C) -0.966 ± 0.074; (37 °C) -1.1 ± 0.093.

On to CUCUAGCAAUAUUACGUGAC, for which the “self-splicing fitness (ln)” value runs as follows: (30 °C) -4.2 ± 0.26; (37 °C) -1.68 ± 0.17. The matching figures for GCGAAGCAAUAUUACGAUUG: -2.92 ± 0.097 and -1.64 ± 0.096.

(Values after the supplement of paper PMC7877785.)
